We go through two molecules from patent publication US20050260219A1, “Carboxypeptidases B from anopheles gambiae. compositions comprising them, vaccine applications and use as therapeutical targets” (INSTITUT PASTEUR, priority 2004, published 2005).

Values joined by “and” are separate entries in the source; they are usually repeats but may differ in a detail not shown here. Equal entries are not always repeated. Marks after values point to notes of the source that are not given here.

Substrate in data set [1]: N=C(N)NCCC[C@H](NC(=O)CNC(=O)c1ccccc1)C(=O)O
The data set can be described thus: Carboxypeptidase activity assay on recombinant CPBAg1 with di-peptide substrates. The format is biochemical, Anopheles gambiae. Conditions: other: hydrolysis of Hip-Arg, Michaelis-Menten, 0.02-10 mM substrate; pH 7.2; 25.0 °C. As for the experimental part:
Carboxypeptidase activity was determined using the synthetic di-peptide substrates Hippuryl-Arginine (Hip-Arg), Hippuryl-Lysine (Hip-Lys) as carboxypeptidase B substrates and Hippuryl-Phenylalanine (Hip-Phe) as carboxypeptidase A substrate. All reagents were purchased from Sigma. Activities were assayed in 20 μl E buffer (100 mM NaCl/50 mM Hepes/100 μM ZnCl2 pH 7.2) containing 1 mM Hip-Arg, Hip-Lys or Hip-Phe. The reaction was initiated by adding an equal volume of His-tagged CPBAg1 (5 ng/μl in E buffer), incubated at 25° C. for 10-40 min, and stopped by the addition of 20 μl Ninhydrin reagent (Sigma, Lyon, France). The rate of the reaction was measured by estimating the amount of released amino acids using the ninhydrin procedure (60). One unit of enzyme activity was defined as μmol of amino acids released/min.
Estimation of Km and kcat was carried out after assays over a 500-fold range of Hip-Arg concentration (0.02-10 mM). Each concentration was assayed in triplicate. The kinetic parameters were derived from iterative non-linear least square fits of the Michaelis-Menten equation using the experimental data (61). Confidence limits for the fitted values were determined by 100 Monte Carlo iterations using the experimental standard deviations on individual measurements. […]

For data set [2], the system named is P. berghei. Description: Transmission-blocking assays: An. gambiae fed on CPBAg1 immunized, P. berghei infected mice. The format is in vivo, Plasmodium berghei. Conditions: for Mean no. of oocysts (range): per positive midgut, day 9-11; for % of reduction R: infected mosquitoes fed on immunized versus control mice. As for the experimental part: Immunizations were performed with a recombinant CPBAg1 protein expressed in insect cells using the baculovirus expression system. Eleven 3- to 4-week-old female Swiss outbred mice (CERJ, Le Genest St-Isle, France) were injected subcutaneously with 20 μg of recombinant CPBAg1 in sterile PBS, emulsified with complete Freund's adjuvant (Sigma). Eleven control mice were injected simultaneously with sterile PBS/adjuvant following the same protocol. On day 21 post-immunization, eight immunized mice and eight control mice (group 1) were challenged with P. berghei for transmission blocking assays (see below). The three other immunized mice were boosted with 10 μg of recombinant CPBAg1 formulated in incomplete Freund's adjuvant (Sigma) and the three other control mice were injected simultaneously with sterile PBS/incomplete adjuvant. These six mice, which constituted group 2, were challenged with P. berghei 21 days after the booster immunization. Sera from immunized and control mice of both groups were prepared from 100 μl blood samples collected the same day as mosquito feeding (24 days after the first and booster immunizations).
On day 21 after the first and booster immunizations, mice were peritoneally inoculated with the P. berghei ANKA strain 2.34. On day 3 after P. berghei inoculation, parasitemia and gametocytemia were determined using Giemsa stained thin blood smears, and the mice were used for mosquito feeding. In group 1, parasitemia and gametocytemia ranged from 3.2% to 6.2% and from 6,500 to 11,500 gametocytes/μl for control mice, whereas they ranged from 3% to 7.4% and from 7,500 to 13,500 gametocytes/μl for immunized mice. In group 2, they ranged from 2% to 2.9% and from 2,000 to 4,000 gametocytes/μl for control mice, whereas they ranged from 1.5% to 3.6% and from 1,000 to 2,000 gametocytes/μl for immunized mice. Each mouse was placed onto a netted cage containing 50 starved 5-day-old An. gambiae females and feeding was carried out for 15 minutes at 21° C. After mosquito feeding, mice were bled to collect sera for ELISAs experiments and fully engorged mosquito females were maintained at 21° C., 80% humidity, until dissections. Rate of infection (number of infected mosquitoes/number of dissected mosquitoes) and intensity of infection (mean number of oocysts per positive midgut) were scored on day 9-11 after blood feeding by detection of oocysts on the mosquito midgut wall.
For the data reported in Table 7 below, An. gambiae were fed on control or immunized mice from group 1 (after primary immunization) and group 2 (after booster immunization). Proportion of infected mosquitoes (rate of infection) and mean number of oocysts per positive midgut (intensity of infection) were determined on day 9-11 post feeding. R: % reduction was calculated as R %=100×[1−(% infected mosquitoes fed on immunized mice/% infected mosquitoes fed on control mice)], using the mean value from each experimental group.

The subject of data set [3] is P. berghei PbGFPCON ANKA strain. Description: Effect of CPBAg1 immunized mice sera on parasite development (GFP-expressing P. berghei). The format is in vivo, Plasmodium berghei. As for the experimental part: Intensity of infection (number of parasites per positive midgut) by P. berghei was scored by detection of GFP-expressing parasites in midguts of mosquitoes fed on control (black bars) and immunized mice (grey bars). Gametocytemia was determined just before feeding by Giemsa staining of thin smears and by GFP fluorescence detection. Mosquitoes were dissected at 3 h, 24 h, 48 h and 9 days after blood feeding to visualize zygotes (Zyg), ookinetes (Ook), young oocysts (Ooc 48 h) and mature oocysts (Ooc day 9), respectively. Geometric mean intensity for six immunized mice was plotted as % of that for six control mice set at 100%. The table indicates the geometric mean number of parasite per midgut at each parasite life stages.
To assess the effect of anti-CPBAg1 sera on parasite development, a new group of six mice was immunized as described above and six control mice were injected with PBS/adjuvant. […] On day 3 after P. berghei inoculation, gametocytemia were determined by Giemsa staining of thin blood smears and by GFP fluorescence detection. […] Intensity of infection was scored by counting the number of zygotes and ookinetes within the mosquito midgut content, and the number of oocysts on the midgut wall. GFP fluorescence was visualized using GFP filter settings with a Zeiss Axiovert 25 fluorescence microscope.

For data set [4], the system named is CPBAg1. Description: CPBAg1 specific ELISA titers in sera from immunized mice. The format is in vivo. Conditions: Swiss mice. How it is done: Specific antibody titers against CPBAg1 were measured in duplicates for each mice by ELISA three weeks after the first (group 1) and the booster (group 2) immunization. The average reading at O.D. 490 nm of each group was plotted against the reciprocal sera dilution. End points were defined as the highest serial dilutions yielding an absorbance reading at 490 nm greater than 0.5. (Δ) and (□) show antibody titers from group 1 and 2 respectively in sera from immunized mice. (▴) and (▪) show antibody titers from group 1 and 2 respectively in sera from control mice.
Immunizations were performed with a recombinant CPBAg1 protein expressed in insect cells using the baculovirus expression system. Eleven 3- to 4-week-old female Swiss outbred mice (CERJ, Le Genest St-Isle, France) were injected subcutaneously with 20 μg of recombinant CPBAg1 in sterile PBS, emulsified with complete Freund's adjuvant (Sigma). […]
Microtiter plates (Immuno-plate Maxisorp, Nunc) were coated with 50 ng/well of CPBAg1 in PBS, overnight at 4° C., and saturated with 100 μl/well 0.5% gelatine (Sigma) in PBS for 1 h. […] After 10 min. incubation, the reaction was stopped with 50 μl 3N HCl and absorbance was measured at 490 nm using a microplate reader (Molecular Devices). Serum dilutions at an absorbance value of 0.5 were designated as the endpoint of ELISA titers.
(In general: In an ELISA, binding on a coated surface is turned into a signal by an enzyme label.)

B1: recombinant CPBAg1 (Anopheles gambiae) (protein)
chain: GSYHEFELYNVRPETAEQLSVLLKWRNGQEIEVDFWDAPKVGRSARLMVTREDHKRVEEFLEQHDIEYDLVAEDVQELLNREQRRNVEHGRRLRRDSNSRATVNFEHFWTLDEIYEYLDELAVAYNGLVRVSEIGRTHEDRPIKAITISTRGAVDQTRPIVFMDGGIHAREWAGVMSVMYMIHEFVEHSDQYAEQLSNTDYVIVPVANPDGYVYTHEQNRLWRKNRSPGNVLCYGVDLNRNFPFQWDRTTSECTNNFAGHAASSENETKALIGLMDQYKAAIRMYLAVHTYGEMILWPWGYDFLHAPNEDDLQRLGERARDALVAAGGPEYEVGNSADILYTASGATDDYAYSLGVPYSYTLELTGGGSQGFDLPAAELARVTSQTFELLKVFGQHAGTLSVTS
In general, Km refers to the substrate concentration at which the rate is half of its maximum. As to B1, the Km in data set [1] stood at 2590 µM.

B2: CPBAg1: recombinant His-tagged An. gambiae carboxypeptidase B (SEQ ID NO: 2) from baculovirus/insect cells, used to immunize mice (protein, listed as Anopheles gambiae)
chain: MKRLTFVTGCLLALAFAKAGSYHEFELYNVRPETAEQLSVLLKWRNGQEIEVDFWDAPKVGRSARLMVTREDHKRVEEFLEQHDIEYDLVAEDVQELLNREQRRNVEHGRRLRRDSNSRATVNFEHFWTLDEIYEYLDELAVAYNGLVRVSEIGRTHEDRPIKAITISTRGAVDQTRPIVFMDGGIHAREWAGVMSVMYMIHEFVEHSDQYAEQLSNTDYVIVPVANPDGYVYTHEQNRLWRKNRSPGNVLCYGVDLNRNFPFQWDRTTSECTNNFAGHAASSENETKALIGLMDQYKAAIRMYLAVHTYGEMILWPWGYDFLHAPNEDDLQRLGERARDALVAAGGPEYEVGNSADILYTASGATDDYAYSLGVPYSYTLELTGGGSQGFDLPAAELARVTSQTFELLKVFGQHAGTLSVTS
modifications: His tag
Take B2: the “Rate of infection % (number of dissected mosquitoes)” value in data set [2] (Group 1 (primary immunization), individual immunized mice Im 1-Im 8, day 9-11 post feeding) was 9.4 (32)* % and 0 (20)* % and 43.3 (30)* % and 31.2 (32)* % and 41.2 (17)* % and 38.8 (18)* % and 50 (30)* % and 10.5 (38)* %; in data set [2] (Group 2 (booster immunization), individual immunized mice Im 9-Im 11, day 9-11 post feeding), 77.4 (31)* % and 26.6 (30)* % and 36.6 (30)* %; in data set [2] (Mean Group 1, immunized mice), 28.1 (217)* %; in data set [2] (Mean Group 2, immunized mice) it was 47.2 (91)* %. The “Mean no. of oocysts (range)” value was 2.5 (1-5)* and 0* and 7.16 (1-56) and 3.7 (1-70) and 5.4 (1-27) and 5.8 (1-32) and 6.7 (1-117) and 3.3 (1-15) in data set [2] (Group 1, individual immunized mice Im 1-Im 8); 23.7 (1-120) and 6.2 (3-10)* and 24.3 (6-100) in data set [2] (Group 2, individual immunized mice Im 9-Im 11). For the same molecule, the “% of reduction R” value in data set [2] (Group 1) was 63% and 63.2%; in data set [2] (Group 2), 51% and 50.6%. The “Mean no. of oocysts” value in data set [2] (Mean Group 1, immunized mice) is on record as 5.3; in data set [2] (Mean Group 2, immunized mice) it was 18.6*. The “reduction of mean infection intensity versus mosquitoes fed on control mice” value in data set [3] (3 h PBM (zygotes)) amounted to 40%; in data set [3] (day 9 PBM (mature oocysts)), 65%. The “endpoint titer of specific anti-CPBAg1 antibodies” value in data set [4] (group 1: single injection of 20 μg in complete Freund's adjuvant, 24 days after immunization) is ~12,150; in data set [4] (group 2: second injection on day 21) it was ~36,450.
